Data published in patent US20230183354A1 (IMMIOS HOLDING B V, published 2023).

Molecular target: T1, human CD103 (integrin Alpha-E) / human integrin Beta-7 heterodimer on cells (human, UniProt P38570 19-1179; P26010 20-798)
T1 construct: The same id is used for native CD103 on human CD103+CD8+ T cells (tumor digests, TGF-beta induced T cells); the assay field tells which cells; also called hCD103/hBeta7; CHO.K1-hCD103/hBeta7
Test: binding of 89Zr-labeled mAb to CHO.K1-hCD103/hBeta7 cells, bound activity in counts

T1 sequence (P38570 19-1179 limits assumed, chain 1 of 2): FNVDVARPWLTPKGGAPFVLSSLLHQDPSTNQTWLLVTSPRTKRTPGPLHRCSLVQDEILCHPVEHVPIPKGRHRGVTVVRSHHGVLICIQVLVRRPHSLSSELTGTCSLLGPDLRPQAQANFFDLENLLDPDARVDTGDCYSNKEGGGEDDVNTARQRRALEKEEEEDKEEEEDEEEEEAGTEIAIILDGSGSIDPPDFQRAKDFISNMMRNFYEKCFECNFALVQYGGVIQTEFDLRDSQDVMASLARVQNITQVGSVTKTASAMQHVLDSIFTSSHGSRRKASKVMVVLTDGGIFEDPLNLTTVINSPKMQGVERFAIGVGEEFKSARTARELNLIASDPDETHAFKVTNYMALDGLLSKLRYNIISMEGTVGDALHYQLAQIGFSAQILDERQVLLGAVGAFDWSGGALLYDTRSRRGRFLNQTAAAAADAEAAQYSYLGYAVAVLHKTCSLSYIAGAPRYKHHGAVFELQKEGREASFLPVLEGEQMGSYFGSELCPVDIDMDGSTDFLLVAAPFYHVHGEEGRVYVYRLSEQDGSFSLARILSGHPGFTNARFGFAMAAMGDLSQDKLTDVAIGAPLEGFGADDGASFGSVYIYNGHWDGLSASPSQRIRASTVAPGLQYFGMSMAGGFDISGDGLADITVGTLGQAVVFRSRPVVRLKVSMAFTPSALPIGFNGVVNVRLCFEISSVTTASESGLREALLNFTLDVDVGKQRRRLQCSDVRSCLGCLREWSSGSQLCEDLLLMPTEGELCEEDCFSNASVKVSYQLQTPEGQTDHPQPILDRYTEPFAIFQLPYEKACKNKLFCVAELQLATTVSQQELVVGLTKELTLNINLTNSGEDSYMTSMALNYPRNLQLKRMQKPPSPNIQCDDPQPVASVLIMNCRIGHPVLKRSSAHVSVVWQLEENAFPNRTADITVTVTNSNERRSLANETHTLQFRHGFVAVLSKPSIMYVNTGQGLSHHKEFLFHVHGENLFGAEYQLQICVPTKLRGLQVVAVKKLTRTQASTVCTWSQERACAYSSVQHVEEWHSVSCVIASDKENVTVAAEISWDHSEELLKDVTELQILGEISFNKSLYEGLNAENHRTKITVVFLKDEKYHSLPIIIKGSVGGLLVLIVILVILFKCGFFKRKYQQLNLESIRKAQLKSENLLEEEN
T1 sequence (P26010 20-798 limits assumed, chain 2 of 2): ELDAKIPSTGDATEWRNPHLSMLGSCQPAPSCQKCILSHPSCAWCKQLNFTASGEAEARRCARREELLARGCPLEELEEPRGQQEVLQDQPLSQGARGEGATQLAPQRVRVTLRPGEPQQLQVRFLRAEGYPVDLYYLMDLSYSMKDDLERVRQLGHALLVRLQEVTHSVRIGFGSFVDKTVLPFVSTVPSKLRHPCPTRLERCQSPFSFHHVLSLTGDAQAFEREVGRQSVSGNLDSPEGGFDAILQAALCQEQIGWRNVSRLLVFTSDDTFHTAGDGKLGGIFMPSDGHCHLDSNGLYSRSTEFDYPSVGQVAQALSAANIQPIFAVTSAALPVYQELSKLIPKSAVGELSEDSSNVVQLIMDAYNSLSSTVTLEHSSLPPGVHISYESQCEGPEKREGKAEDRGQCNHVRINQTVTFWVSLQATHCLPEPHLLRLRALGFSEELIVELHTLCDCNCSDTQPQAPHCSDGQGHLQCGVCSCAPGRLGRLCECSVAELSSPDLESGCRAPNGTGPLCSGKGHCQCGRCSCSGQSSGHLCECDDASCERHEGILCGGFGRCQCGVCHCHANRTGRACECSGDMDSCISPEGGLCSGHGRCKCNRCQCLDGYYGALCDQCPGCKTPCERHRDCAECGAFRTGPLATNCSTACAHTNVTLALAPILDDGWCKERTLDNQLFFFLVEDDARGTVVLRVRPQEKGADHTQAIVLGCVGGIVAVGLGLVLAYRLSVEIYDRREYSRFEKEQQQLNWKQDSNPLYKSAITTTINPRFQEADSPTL

B1: hCD103.05A (antibody, mouse IgG1, V domains shown)
VH: EVQLQQSGPELEKPGASAKISCKASGYSFTGYNMNWVKQSNGKSLEWIGNIDPYYGGTSYNQKFKGKATLTVDKSSSTAYMQLKSLTSEDSAVYYCARSFYGYDAGSPYNYAMDYWGQGTPVTVSP
VL: DIVMTQSHKFMSTSVGDRVSITCKASQDVGTFVAWYQQKPGQSPKLLIYWASTRHTGVPDRFTGSGSGTDFTLTISNVQSEDLADYFCHQYSSYPYTFGGGTQLEIK
notes: Also tested labelled with AF647, conjugated with Df and labelled with 89Zr; these are written under this molecule; also called clone 05A; hCD103.05 mAb
Question: How did the “EC50 (read off the curve)” value turn out when B1 was run?
Answer: Its value is ~400 ng/mL.
